Experimental findings from PMC5737361 (Nucleic Acids Research, 2017) are described below.

The assay concerns the target T1, Sulfolobus solfataricus PolB1, unlabelled (Sulfolobus solfataricus, UniProt P26811 1-882).
T1 sequence (looked up): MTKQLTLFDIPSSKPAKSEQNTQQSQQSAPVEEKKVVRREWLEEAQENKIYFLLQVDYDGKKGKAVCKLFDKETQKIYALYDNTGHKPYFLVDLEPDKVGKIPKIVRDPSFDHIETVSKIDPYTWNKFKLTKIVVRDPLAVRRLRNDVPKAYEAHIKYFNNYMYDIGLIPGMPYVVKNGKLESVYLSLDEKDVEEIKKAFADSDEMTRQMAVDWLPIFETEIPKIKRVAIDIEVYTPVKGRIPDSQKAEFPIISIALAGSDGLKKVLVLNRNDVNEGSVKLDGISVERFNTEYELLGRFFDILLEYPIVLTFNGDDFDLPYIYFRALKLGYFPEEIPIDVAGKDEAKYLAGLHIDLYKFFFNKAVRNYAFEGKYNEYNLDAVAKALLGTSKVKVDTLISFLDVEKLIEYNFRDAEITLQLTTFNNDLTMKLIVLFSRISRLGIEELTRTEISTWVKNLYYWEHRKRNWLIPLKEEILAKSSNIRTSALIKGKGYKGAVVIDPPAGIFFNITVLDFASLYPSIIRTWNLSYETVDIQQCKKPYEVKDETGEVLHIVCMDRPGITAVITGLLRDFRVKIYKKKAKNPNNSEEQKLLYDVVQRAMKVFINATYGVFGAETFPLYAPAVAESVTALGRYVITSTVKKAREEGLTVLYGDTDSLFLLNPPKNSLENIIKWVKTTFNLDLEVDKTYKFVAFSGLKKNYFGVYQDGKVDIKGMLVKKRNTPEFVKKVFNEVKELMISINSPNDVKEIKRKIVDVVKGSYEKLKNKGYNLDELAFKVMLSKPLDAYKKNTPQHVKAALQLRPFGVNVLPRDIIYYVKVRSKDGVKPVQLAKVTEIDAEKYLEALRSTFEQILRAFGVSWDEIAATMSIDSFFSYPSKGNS
Nature of the assay: SEC. A general note: SEC sorts molecules by how far they enter the pores of the column.

B1: Sulfolobus solfataricus Dpo4 (PolY), wild type, unlabelled (enzyme)
chain: MIVLFVDFDYFYAQVEEVLNPSLKGKPVVVCVFSGRFEDSGAVATANYEARKFGVKAGIPIVEAKKILPNAVYLPMRKEVYQQVSSRIMNLLREYSEKIEIASIDEAYLDISDKVRDYREAYNLGLEIKNKILEKEKITVTVGISKNKVFAKIAADMAKPNGIKVIDDEEVKRLIRELDIADVPGIGNITAEKLKKLGINKLVDTLSIEFDKLKGMIGEAKAKYLISLARDEYNEPIRTRVRKSIGRIVTMKRNSRNLEEIKPYLFRAIEESYYKLDKRIPKAIHVVAVTEDLDIVSRGRTFPHGISKETAYSESVKLLQKILEEDERKIRRIGVRFSKFIEAIGLDKFFDT
As to B1, the binding result is “binds”.
